Data taken from IntAct's records for PubMed 25910212.

B1: Progranulin (Homo sapiens), P28799 (parent)
chain: MWTLVSWVALTAGLVAGTRCPDGQFCPVACCLDPGGASYSCCRPLLDKWPTTLSRHLGGPCQVDAHCSAGHSCIFTVSGTSSCCPFPEAVACGDGHHCCPRGFHCSADGRSCFQRSGNNSVGAIQCPDSQFECPDFSTCCVMVDGSWGCCPMPQASCCEDRVHCCPHGAFCDLVHTRCITPTGTHPLAKKLPAQRTNRAVALSSSVMCPDARSRCPDGSTCCELPSGKYGCCPMPNATCCSDHLHCCPQDTVCDLIQSKCLSKENATTDLLTKLPAHTVGDVKCDMEVSCPDGYTCCRLQSGAWGCCPFTQAVCCEDHIHCCPAGFTCDTQKGTCEQGPHQVPWMEKAPAHLSLPDPQALKRDVPCDNVSSCPSSDTCCQLTSGEWGCCPIPEAVCCSDHQHCCPQGYTCVAEGQCQRGSEIVAGLEKMPARRASLSHPRDIGCDQHTSCPVGQTCCPSLGGSWACCQLPHAVCCEDRQHCCPAGYTCNVKARSCEKEVVSAQPATFLARSPHVGVKDVECGEGHFCHDNQTCCRDNRQGWACCPYRQGVCCADRRHCCPAGFRCAARGTKCLRREAPRWDAPLRDPALRQLL
B2: Ribonucleoside-diphosphate reductase subunit M2 B (Homo sapiens), Q7LG56 (parent)
chain: MGDPERPEAAGLDQDERSSSDTNESEIKSNEEPLLRKSSRRFVIFPIQYPDIWKMYKQAQASFWTAEEVDLSKDLPHWNKLKADEKYFISHILAFFAASDGIVNENLVERFSQEVQVPEARCFYGFQILIENVHSEMYSLLIDTYIRDPKKREFLFNAIETMPYVKKKADWALRWIADRKSTFGERVVAFAAVEGVFFSGSFAAIFWLKKRGLMPGLTFSNELISRDEGLHCDFACLMFQYLVNKPSEERVREIIVDAVKIEQEFLTEALPVGLIGMNCILMKQYIEFVADRLLVELGFSKVFQAENPFDFMENISLEGKTNFFEKRVSEYQRFAVMAETTDNVFTLDADF
partner: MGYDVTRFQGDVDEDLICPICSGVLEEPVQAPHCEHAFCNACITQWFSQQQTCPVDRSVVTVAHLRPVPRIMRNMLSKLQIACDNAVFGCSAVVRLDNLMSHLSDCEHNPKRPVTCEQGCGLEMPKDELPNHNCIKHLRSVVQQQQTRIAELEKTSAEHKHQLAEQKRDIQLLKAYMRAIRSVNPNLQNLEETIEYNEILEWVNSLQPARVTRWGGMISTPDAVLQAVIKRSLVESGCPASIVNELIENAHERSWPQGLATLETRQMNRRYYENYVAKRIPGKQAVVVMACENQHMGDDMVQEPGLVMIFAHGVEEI
B3: Beta-crystallin A4 (Homo sapiens), P53673 (parent)
chain: MTLQCTKSAGPWKMVVWDEDGFQGRRHEFTAECPSVLELGFETVRSLKVLSGAWVGFEHAGFQGQQYILERGEYPSWDAWGGNTAYPAERLTSFRPAACANHRDSRLTIFEQENFLGKKGELSDDYPSLQAMGWEGNEVGSFHVHSGAWVCSQFPGYRGFQYVLECDHHSGDYKHFREWGSHAPTFQVQSIRRIQQ

Variants of: B1
Details: with hxa1_human HOXA1, P49639
hxa1_human HOXA1, P49639, sequence (P49639 whole entry): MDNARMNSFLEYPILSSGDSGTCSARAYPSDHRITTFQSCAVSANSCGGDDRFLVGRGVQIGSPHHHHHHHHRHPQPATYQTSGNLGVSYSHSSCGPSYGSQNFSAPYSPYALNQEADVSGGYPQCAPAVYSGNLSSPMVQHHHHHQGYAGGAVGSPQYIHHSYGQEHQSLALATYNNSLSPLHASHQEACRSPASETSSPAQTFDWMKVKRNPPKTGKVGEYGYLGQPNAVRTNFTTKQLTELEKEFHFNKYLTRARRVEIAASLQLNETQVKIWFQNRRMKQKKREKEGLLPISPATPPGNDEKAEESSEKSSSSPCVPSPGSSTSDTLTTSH

effect of a mutation on the interaction	Variant
disrupting interaction strength	MWTLVSWVDLTAGLVAGTRCPDGQFCPVACCLDPGGASYSCCRPLLDKWPTTLSRHLGGPCQVDAHCSAGHSCIFTVSGTSSCCPFPEAVACGDGHHCCPRGFHCSADGRSCFQRSGNNSVGAIQCPDSQFECPDFSTCCVMVDGSWGCCPMPQASCCEDRVHCCPHGAFCDLVHTRCITPTGTHPLAKKLPAQRTNRAVALSSSVMCPDARSRCPDGSTCCELPSGKYGCCPMPNATCCSDHLHCCPQDTVCDLIQSKCLSKENATTDLLTKLPAHTVGDVKCDMEVSCPDGYTCCRLQSGAWGCCPFTQAVCCEDHIHCCPAGFTCDTQKGTCEQGPHQVPWMEKAPAHLSLPDPQALKRDVPCDNVSSCPSSDTCCQLTSGEWGCCPIPEAVCCSDHQHCCPQGYTCVAEGQCQRGSEIVAGLEKMPARRASLSHPRDIGCDQHTSCPVGQTCCPSLGGSWACCQLPHAVCCEDRQHCCPAGYTCNVKARSCEKEVVSAQPATFLARSPHVGVKDVECGEGHFCHDNQTCCRDNRQGWACCPYRQGVCCADRRHCCPAGFRCAARGTKCLRREAPRWDAPLRDPALRQLL [A9D]

Variants of: B1
Details: with ARFGAP1, Q8N6T3-3
ARFGAP1, Q8N6T3-3, sequence (Q8N6T3 other isoform, or with tags, fused parts or gaps): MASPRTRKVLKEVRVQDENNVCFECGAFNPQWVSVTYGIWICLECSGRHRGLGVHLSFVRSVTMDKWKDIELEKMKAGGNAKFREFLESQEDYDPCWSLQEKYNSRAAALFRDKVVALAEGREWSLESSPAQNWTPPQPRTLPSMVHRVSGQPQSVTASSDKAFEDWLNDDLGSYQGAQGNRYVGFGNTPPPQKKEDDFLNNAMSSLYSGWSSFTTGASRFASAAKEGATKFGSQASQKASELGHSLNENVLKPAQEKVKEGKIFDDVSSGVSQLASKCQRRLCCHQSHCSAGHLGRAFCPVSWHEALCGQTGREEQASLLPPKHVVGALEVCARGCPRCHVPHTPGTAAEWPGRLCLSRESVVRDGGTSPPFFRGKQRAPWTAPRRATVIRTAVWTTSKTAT

effect of a mutation on the interaction	Variant
disrupting interaction strength	MWTLVSWVDLTAGLVAGTRCPDGQFCPVACCLDPGGASYSCCRPLLDKWPTTLSRHLGGPCQVDAHCSAGHSCIFTVSGTSSCCPFPEAVACGDGHHCCPRGFHCSADGRSCFQRSGNNSVGAIQCPDSQFECPDFSTCCVMVDGSWGCCPMPQASCCEDRVHCCPHGAFCDLVHTRCITPTGTHPLAKKLPAQRTNRAVALSSSVMCPDARSRCPDGSTCCELPSGKYGCCPMPNATCCSDHLHCCPQDTVCDLIQSKCLSKENATTDLLTKLPAHTVGDVKCDMEVSCPDGYTCCRLQSGAWGCCPFTQAVCCEDHIHCCPAGFTCDTQKGTCEQGPHQVPWMEKAPAHLSLPDPQALKRDVPCDNVSSCPSSDTCCQLTSGEWGCCPIPEAVCCSDHQHCCPQGYTCVAEGQCQRGSEIVAGLEKMPARRASLSHPRDIGCDQHTSCPVGQTCCPSLGGSWACCQLPHAVCCEDRQHCCPAGYTCNVKARSCEKEVVSAQPATFLARSPHVGVKDVECGEGHFCHDNQTCCRDNRQGWACCPYRQGVCCADRRHCCPAGFRCAARGTKCLRREAPRWDAPLRDPALRQLL [A9D]

Variants of: B1
Details: with sgta_human SGTA

effect of a mutation on the interaction	Variant
disrupting interaction strength	MWTLVSWVDLTAGLVAGTRCPDGQFCPVACCLDPGGASYSCCRPLLDKWPTTLSRHLGGPCQVDAHCSAGHSCIFTVSGTSSCCPFPEAVACGDGHHCCPRGFHCSADGRSCFQRSGNNSVGAIQCPDSQFECPDFSTCCVMVDGSWGCCPMPQASCCEDRVHCCPHGAFCDLVHTRCITPTGTHPLAKKLPAQRTNRAVALSSSVMCPDARSRCPDGSTCCELPSGKYGCCPMPNATCCSDHLHCCPQDTVCDLIQSKCLSKENATTDLLTKLPAHTVGDVKCDMEVSCPDGYTCCRLQSGAWGCCPFTQAVCCEDHIHCCPAGFTCDTQKGTCEQGPHQVPWMEKAPAHLSLPDPQALKRDVPCDNVSSCPSSDTCCQLTSGEWGCCPIPEAVCCSDHQHCCPQGYTCVAEGQCQRGSEIVAGLEKMPARRASLSHPRDIGCDQHTSCPVGQTCCPSLGGSWACCQLPHAVCCEDRQHCCPAGYTCNVKARSCEKEVVSAQPATFLARSPHVGVKDVECGEGHFCHDNQTCCRDNRQGWACCPYRQGVCCADRRHCCPAGFRCAARGTKCLRREAPRWDAPLRDPALRQLL [A9D]

Variants of: B1
Details: with otx1_human OTX1, P32242
otx1_human OTX1, P32242, sequence (P32242 whole entry): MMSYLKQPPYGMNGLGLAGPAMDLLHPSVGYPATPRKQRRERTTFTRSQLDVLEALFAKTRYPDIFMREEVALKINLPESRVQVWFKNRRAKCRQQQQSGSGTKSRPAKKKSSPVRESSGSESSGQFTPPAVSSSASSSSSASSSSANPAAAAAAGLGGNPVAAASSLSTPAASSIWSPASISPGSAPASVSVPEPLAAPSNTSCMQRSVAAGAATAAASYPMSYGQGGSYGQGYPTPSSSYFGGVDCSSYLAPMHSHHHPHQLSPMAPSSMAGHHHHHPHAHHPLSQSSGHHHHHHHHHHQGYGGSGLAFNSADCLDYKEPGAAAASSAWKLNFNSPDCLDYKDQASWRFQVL

effect of a mutation on the interaction	Variant
disrupting interaction strength	MWTLVSWVDLTAGLVAGTRCPDGQFCPVACCLDPGGASYSCCRPLLDKWPTTLSRHLGGPCQVDAHCSAGHSCIFTVSGTSSCCPFPEAVACGDGHHCCPRGFHCSADGRSCFQRSGNNSVGAIQCPDSQFECPDFSTCCVMVDGSWGCCPMPQASCCEDRVHCCPHGAFCDLVHTRCITPTGTHPLAKKLPAQRTNRAVALSSSVMCPDARSRCPDGSTCCELPSGKYGCCPMPNATCCSDHLHCCPQDTVCDLIQSKCLSKENATTDLLTKLPAHTVGDVKCDMEVSCPDGYTCCRLQSGAWGCCPFTQAVCCEDHIHCCPAGFTCDTQKGTCEQGPHQVPWMEKAPAHLSLPDPQALKRDVPCDNVSSCPSSDTCCQLTSGEWGCCPIPEAVCCSDHQHCCPQGYTCVAEGQCQRGSEIVAGLEKMPARRASLSHPRDIGCDQHTSCPVGQTCCPSLGGSWACCQLPHAVCCEDRQHCCPAGYTCNVKARSCEKEVVSAQPATFLARSPHVGVKDVECGEGHFCHDNQTCCRDNRQGWACCPYRQGVCCADRRHCCPAGFRCAARGTKCLRREAPRWDAPLRDPALRQLL [A9D]

Variants of: B1
Details: with ccd33_human CCDC33, Q8N5R6
Target sequence in this assay (Q8N5R6 whole entry): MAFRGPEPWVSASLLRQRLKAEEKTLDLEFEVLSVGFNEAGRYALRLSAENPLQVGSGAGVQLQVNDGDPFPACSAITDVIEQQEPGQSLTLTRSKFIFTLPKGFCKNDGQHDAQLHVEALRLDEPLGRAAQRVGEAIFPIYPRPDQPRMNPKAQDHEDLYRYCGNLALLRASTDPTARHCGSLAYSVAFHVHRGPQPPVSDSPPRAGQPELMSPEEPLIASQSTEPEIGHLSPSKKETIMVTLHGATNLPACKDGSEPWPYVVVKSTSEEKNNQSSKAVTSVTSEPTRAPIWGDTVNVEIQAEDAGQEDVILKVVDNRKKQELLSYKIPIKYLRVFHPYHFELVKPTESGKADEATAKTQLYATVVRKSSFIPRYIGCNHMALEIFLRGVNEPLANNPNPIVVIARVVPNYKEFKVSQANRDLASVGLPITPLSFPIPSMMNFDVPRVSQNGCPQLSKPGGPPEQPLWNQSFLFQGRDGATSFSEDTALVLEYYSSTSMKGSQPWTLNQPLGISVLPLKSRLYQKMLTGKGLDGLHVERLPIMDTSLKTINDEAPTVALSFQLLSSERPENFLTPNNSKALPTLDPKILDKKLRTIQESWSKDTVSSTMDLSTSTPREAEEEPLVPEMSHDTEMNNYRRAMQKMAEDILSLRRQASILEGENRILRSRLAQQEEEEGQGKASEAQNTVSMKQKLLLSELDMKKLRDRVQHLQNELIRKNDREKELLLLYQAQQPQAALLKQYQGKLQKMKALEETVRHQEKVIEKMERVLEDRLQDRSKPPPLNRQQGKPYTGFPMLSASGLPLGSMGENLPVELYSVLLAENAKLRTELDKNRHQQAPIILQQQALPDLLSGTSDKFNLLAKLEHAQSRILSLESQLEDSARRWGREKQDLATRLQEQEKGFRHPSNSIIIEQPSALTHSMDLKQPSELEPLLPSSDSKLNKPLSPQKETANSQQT

effect of a mutation on the interaction	Variant
disrupting interaction strength	MWTLVSWVDLTAGLVAGTRCPDGQFCPVACCLDPGGASYSCCRPLLDKWPTTLSRHLGGPCQVDAHCSAGHSCIFTVSGTSSCCPFPEAVACGDGHHCCPRGFHCSADGRSCFQRSGNNSVGAIQCPDSQFECPDFSTCCVMVDGSWGCCPMPQASCCEDRVHCCPHGAFCDLVHTRCITPTGTHPLAKKLPAQRTNRAVALSSSVMCPDARSRCPDGSTCCELPSGKYGCCPMPNATCCSDHLHCCPQDTVCDLIQSKCLSKENATTDLLTKLPAHTVGDVKCDMEVSCPDGYTCCRLQSGAWGCCPFTQAVCCEDHIHCCPAGFTCDTQKGTCEQGPHQVPWMEKAPAHLSLPDPQALKRDVPCDNVSSCPSSDTCCQLTSGEWGCCPIPEAVCCSDHQHCCPQGYTCVAEGQCQRGSEIVAGLEKMPARRASLSHPRDIGCDQHTSCPVGQTCCPSLGGSWACCQLPHAVCCEDRQHCCPAGYTCNVKARSCEKEVVSAQPATFLARSPHVGVKDVECGEGHFCHDNQTCCRDNRQGWACCPYRQGVCCADRRHCCPAGFRCAARGTKCLRREAPRWDAPLRDPALRQLL [A9D]

Variants of: B2
Details: with rnf41_human RNF41, Q9H4P4

effect of a mutation on the interaction	Variant
disrupting interaction strength	MGDPERPEAAGLDQDERSSSDTNESEIKSNEEPLLRKSSRRFVIFPIQYPDIWKMYKQAQASFRTAEEVDLSKDLPHWNKLKADEKYFISHILAFFAASDGIVNENLVERFSQEVQVPEARCFYGFQILIENVHSEMYSLLIDTYIRDPKKREFLFNAIETMPYVKKKADWALRWIADRKSTFGERVVAFAAVEGVFFSGSFAAIFWLKKRGLMPGLTFSNELISRDEGLHCDFACLMFQYLVNKPSEERVREIIVDAVKIEQEFLTEALPVGLIGMNCILMKQYIEFVADRLLVELGFSKVFQAENPFDFMENISLEGKTNFFEKRVSEYQRFAVMAETTDNVFTLDADF [W64R]
with no effect	MGDPERPEAAGLDQDERSSSDTNESEIKSNEEPLLRKSSRRFVIFPIQYPDIWKMYKQAQASFWTAEEVDLSKDLPHWNKLKADEKYFISHILAFFAASDGIVNENLVERFSQEVQVPEARCFYGFQILIENVHSEMYSLLIDTYIRDPKKREFLFNAIETMPYVKKKADWALRWIADRKSTFGERVVAFAAVEGVFFSGSFAAIFWLKKRGLMPGLTFSNELISRDEGLHCDFAFLMFQYLVNKPSEERVREIIVDAVKIEQEFLTEALPVGLIGMNCILMKQYIEFVADRLLVELGFSKVFQAENPFDFMENISLEGKTNFFEKRVSEYQRFAVMAETTDNVFTLDADF [C236F]

Variants of: B3
Details: with ikzf3_human IKZF3, Q9UKT9
ikzf3_human IKZF3, Q9UKT9, sequence (Q9UKT9 whole entry): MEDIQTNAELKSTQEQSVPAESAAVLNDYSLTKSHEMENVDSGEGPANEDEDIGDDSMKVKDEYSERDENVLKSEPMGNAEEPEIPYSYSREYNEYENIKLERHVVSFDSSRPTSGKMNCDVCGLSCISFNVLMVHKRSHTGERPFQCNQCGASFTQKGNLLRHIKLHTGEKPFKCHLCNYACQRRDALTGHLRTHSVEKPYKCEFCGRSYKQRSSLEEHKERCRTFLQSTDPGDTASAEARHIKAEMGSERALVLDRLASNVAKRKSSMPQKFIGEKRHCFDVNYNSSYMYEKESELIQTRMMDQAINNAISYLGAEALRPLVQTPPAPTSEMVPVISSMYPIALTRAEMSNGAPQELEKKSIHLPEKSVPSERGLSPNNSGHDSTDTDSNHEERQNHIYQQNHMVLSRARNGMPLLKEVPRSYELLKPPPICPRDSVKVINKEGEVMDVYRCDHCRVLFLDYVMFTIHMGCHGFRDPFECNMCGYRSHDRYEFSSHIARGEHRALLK

effect of a mutation on the interaction	Variant
disrupting interaction strength	MTLQCTKSAGPWKMVVWDEDGFQGRRHEFTAECPSMLELGFETVRSLKVLSGAWVGFEHAGFQGQQYILERGEYPSWDAWGGNTAYPAERLTSFRPAACANHRDSRLTIFEQENFLGKKGELSDDYPSLQAMGWEGNEVGSFHVHSGAWVCSQFPGYRGFQYVLECDHHSGDYKHFREWGSHAPTFQVQSIRRIQQ [V36M]

Variants of: B3
Details: with trip6_human TRIP6, Q15654
trip6_human TRIP6, Q15654, sequence (Q15654 whole entry): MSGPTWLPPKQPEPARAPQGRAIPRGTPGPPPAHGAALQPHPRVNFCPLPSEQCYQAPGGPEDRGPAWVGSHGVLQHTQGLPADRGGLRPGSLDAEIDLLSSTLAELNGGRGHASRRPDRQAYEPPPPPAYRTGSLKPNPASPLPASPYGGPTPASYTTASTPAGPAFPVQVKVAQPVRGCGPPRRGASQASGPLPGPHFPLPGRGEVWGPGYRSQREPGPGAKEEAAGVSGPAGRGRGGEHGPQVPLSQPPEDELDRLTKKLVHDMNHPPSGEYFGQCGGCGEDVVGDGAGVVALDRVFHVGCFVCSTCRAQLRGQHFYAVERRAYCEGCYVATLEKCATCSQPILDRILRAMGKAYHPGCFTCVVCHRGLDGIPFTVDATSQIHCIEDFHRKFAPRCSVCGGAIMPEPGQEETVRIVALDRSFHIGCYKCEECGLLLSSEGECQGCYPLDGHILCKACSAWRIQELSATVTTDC

effect of a mutation on the interaction	Variant
disrupting interaction strength	MTLQCTKSAGPWKMVVWDEDGFQGRRHEFTAECPSMLELGFETVRSLKVLSGAWVGFEHAGFQGQQYILERGEYPSWDAWGGNTAYPAERLTSFRPAACANHRDSRLTIFEQENFLGKKGELSDDYPSLQAMGWEGNEVGSFHVHSGAWVCSQFPGYRGFQYVLECDHHSGDYKHFREWGSHAPTFQVQSIRRIQQ [V36M]

Variants of: B3
Details: with gli1_human GLI1, P08151
gli1_human GLI1, P08151, sequence (P08151 whole entry): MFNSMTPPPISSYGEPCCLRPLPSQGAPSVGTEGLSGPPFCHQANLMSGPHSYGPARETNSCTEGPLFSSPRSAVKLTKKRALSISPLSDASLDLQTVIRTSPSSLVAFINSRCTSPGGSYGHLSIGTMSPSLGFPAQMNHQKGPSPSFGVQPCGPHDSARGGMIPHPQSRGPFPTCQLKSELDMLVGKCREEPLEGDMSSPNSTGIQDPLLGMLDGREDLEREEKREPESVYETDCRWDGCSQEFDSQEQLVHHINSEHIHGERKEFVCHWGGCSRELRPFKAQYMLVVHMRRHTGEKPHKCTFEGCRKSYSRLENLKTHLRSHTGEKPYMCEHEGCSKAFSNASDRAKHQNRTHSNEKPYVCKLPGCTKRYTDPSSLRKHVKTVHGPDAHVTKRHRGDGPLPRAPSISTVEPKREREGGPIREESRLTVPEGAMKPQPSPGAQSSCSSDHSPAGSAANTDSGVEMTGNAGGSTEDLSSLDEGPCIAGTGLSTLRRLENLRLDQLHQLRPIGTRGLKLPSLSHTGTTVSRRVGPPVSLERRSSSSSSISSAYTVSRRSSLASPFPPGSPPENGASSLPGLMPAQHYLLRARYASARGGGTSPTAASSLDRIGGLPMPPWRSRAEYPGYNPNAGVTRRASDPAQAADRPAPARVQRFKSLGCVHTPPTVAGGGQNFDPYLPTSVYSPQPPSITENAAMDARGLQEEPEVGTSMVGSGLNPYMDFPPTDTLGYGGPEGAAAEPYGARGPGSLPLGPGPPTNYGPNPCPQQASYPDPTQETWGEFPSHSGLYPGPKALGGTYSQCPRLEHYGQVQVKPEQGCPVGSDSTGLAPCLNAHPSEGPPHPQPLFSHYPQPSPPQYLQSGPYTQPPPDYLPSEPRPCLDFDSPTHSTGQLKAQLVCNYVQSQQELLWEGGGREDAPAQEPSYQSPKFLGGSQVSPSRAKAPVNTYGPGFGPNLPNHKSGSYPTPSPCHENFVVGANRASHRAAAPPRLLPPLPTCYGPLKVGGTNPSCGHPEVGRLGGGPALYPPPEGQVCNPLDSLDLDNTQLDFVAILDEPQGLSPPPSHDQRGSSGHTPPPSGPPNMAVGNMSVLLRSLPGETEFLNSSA

effect of a mutation on the interaction	Variant
disrupting interaction strength	MTLQCTKSAGPWKMVVWDEDGFQGRRHEFTAECPSMLELGFETVRSLKVLSGAWVGFEHAGFQGQQYILERGEYPSWDAWGGNTAYPAERLTSFRPAACANHRDSRLTIFEQENFLGKKGELSDDYPSLQAMGWEGNEVGSFHVHSGAWVCSQFPGYRGFQYVLECDHHSGDYKHFREWGSHAPTFQVQSIRRIQQ [V36M]

Variants of: B3
Details: with ccd33_human CCDC33, Q8N5R6
Target sequence in this assay (Q8N5R6 whole entry): as the sequence (Q8N5R6 whole entry) above

effect of a mutation on the interaction	Variant
disrupting interaction strength	MTLQCTKSAGPWKMVVWDEDGFQGRRHEFTAECPSMLELGFETVRSLKVLSGAWVGFEHAGFQGQQYILERGEYPSWDAWGGNTAYPAERLTSFRPAACANHRDSRLTIFEQENFLGKKGELSDDYPSLQAMGWEGNEVGSFHVHSGAWVCSQFPGYRGFQYVLECDHHSGDYKHFREWGSHAPTFQVQSIRRIQQ [V36M]
